The values below are quoted from earlier work in article PMC4465046.

The target in the data set is HIV-1 protease (Human immunodeficiency virus 1) (UniProt O93215).

Consider HIV-1 protease (from UniProt O93215), for which the Kd was 6.8 nM.

Broadly, the Kd is the free concentration of one partner at which half of the binding sites on the other are occupied at equilibrium, for simple one-to-one binding.
